Experiments:
[1] = tested on: HeLa Kyoto; test: solubility change mitosis vs G1/S (difference of NP-40 vs SDS log2 ratios) (log2 ratio difference); higher = more soluble in mitosis
[2] = tested on: HeLa Kyoto; test: solubility in G1/S (NP-40 vs SDS abundance) (log2 ratio); higher = more soluble; conditions: cell cycle stage: G1/S
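Throughout, for solubility change mitosis vs G1/S (difference of NP-40 vs SDS log2 ratios): synchronized HeLa Kyoto cells (double thymidine block for G1/S, nocodazole release for mitosis), protein amounts in NP-40 versus SDS lysates quantified by mass spectrometry, three biological replicates.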
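Throughout, for solubility in G1/S (NP-40 vs SDS abundance): HeLa Kyoto cells arrested at G1/S by double thymidine block, proteins quantified by TMT10plex mass spectrometry in mild NP-40 versus SDS extracts, three biological replicates.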

KCT2, sequence (chain, as listed by the source): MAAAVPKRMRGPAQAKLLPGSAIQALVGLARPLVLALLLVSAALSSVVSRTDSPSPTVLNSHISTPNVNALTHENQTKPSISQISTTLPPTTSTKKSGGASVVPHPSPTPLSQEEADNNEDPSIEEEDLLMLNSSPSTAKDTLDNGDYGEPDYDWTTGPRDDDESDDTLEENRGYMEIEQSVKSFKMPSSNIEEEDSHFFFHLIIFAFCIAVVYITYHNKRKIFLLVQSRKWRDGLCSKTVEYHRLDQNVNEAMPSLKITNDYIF
DNLZ, sequence (chain, as listed by the source): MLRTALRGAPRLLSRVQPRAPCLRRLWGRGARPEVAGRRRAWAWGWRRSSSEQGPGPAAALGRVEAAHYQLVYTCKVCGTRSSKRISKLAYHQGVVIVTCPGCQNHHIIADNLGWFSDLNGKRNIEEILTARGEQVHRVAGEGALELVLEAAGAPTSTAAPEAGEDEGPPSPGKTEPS
DGKZ, sequence (chain, as listed by the source): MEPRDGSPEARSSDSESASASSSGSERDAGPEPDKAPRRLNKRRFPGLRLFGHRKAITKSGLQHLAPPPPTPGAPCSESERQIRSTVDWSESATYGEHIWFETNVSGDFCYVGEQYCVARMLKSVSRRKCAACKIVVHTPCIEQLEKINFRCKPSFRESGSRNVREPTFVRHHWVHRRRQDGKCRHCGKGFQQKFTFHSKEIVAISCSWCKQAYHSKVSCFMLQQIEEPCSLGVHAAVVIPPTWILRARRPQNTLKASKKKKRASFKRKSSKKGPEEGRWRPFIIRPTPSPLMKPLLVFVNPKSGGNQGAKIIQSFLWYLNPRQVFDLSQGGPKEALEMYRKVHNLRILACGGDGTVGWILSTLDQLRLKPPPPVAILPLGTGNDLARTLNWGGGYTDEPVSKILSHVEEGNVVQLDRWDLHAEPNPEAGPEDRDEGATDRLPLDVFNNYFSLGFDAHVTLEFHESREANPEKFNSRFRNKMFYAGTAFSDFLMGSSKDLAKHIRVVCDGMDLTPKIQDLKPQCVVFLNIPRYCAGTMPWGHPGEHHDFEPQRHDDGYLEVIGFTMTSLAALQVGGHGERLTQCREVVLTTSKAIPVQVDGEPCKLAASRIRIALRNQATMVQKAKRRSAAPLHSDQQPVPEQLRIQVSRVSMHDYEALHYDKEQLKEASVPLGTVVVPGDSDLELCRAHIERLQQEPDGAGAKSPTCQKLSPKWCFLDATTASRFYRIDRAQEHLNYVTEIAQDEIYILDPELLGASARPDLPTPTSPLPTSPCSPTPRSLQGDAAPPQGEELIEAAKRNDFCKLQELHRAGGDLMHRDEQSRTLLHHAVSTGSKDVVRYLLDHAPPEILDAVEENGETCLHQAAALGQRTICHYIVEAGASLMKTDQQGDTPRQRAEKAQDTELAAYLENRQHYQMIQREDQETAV

Row | Substance | solubility change mitosis (log2) [1] | solubility in G1/S (log2) [2]
1 | MSRQTATALPTGTSKCPPSQRVPALTGTTASNNDLASLFECPVCFDYVLPPILQCQSGHLVCSNCRPKLTCCPTCRGPLGSIRNLAMEKVANSVLFPCKYASSGCEITLPHTEKADHEELCEFRPYSCPCPGASCKWQGSLDAVMPHLMHQHKSITTLQGEDIVFLATDINLPGAVDWVMMQSCFGFHFMLVLEKQEKYDGHQQFFAIVQLIGTRKQAENFAYRLELNGHRRRLTWEATPRSIHEGIATAIMNSDCLVFDTSIAQLFAENGNLGINVTISMC [SIAH1] | -0.11 | 0.247
2 | MHGHGGYDSDFSDDERCGESSKRKKRTVEDDLLLQKPFQKEKHGKVAHKQVAAELLDREEARNRRFHLIAMDAYQRHTKFVNDYILYYGGKKEDFKRLGENDKTDLDVIRENHRFLWNEEDEMDMTWEKRLAKKYYDKLFKEYCIADLSKYKENKFGFRWRVEKEVISGKGQFFCGNKYCDKKEGLKSWEVNFGYIEHGEKRNALVKLRLCQECSIKLNFHHRRKEIKSKKRKDKTKKDCEESSHKKSRLSSAEEASKKKDKGHSSSKKSEDSLLRNSDEEESASESELWKGPLPETDEKSQEEEFDEYFQDLFL [FRA10AC1] | 0.365 | -0.47
3 | MSANNSPPSAQKSVLPTAIPAVLPAASPCSSPKTGLSARLSNGSFSAPSLTNSRGSVHTVSFLLQIGLTRESVTIEAQELSLSAVKDLVCSIVYQKFPECGFFGMYDKILLFRHDMNSENILQLITSADEIHEGDLVEVVLSALATVEDFQIRPHTLYVHSYKAPTFCDYCGEMLWGLVRQGLKCEGCGLNYHKRCAFKIPNNCSGVRKRRLSNVSLPGPGLSVPRPLQPEYVALPSEESHVHQEPSKRIPSWSGRPIWMEKMVMCRVKVPHTFAVHSYTRPTICQYCKRLLKGLFRQGMQCKDCKFNCHKRCASKVPRDCLGEVTFNGEPSSLGTDTDIPMDIDNNDINSDSSRGLDDTEEPSPPEDKMFFLDPSDLDVERDEEAVKTISPSTSNNIPLMRVVQSIKHTKRKSSTMVKEGWMVHYTSRDNLRKRHYWRLDSKCLTLFQNESGSKYYKEIPLSEILRISSPRDFTNISQGSNPHCFEIITDTMVYFVGENNGDSSHNPVLAATGVGLDVAQSWEKAIRQALMPVTPQASVCTSPGQGKDHKDLSTSISVSNCQIQENVDISTVYQIFADEVLGSGQFGIVYGGKHRKTGRDVAIKVIDKMRFPTKQESQLRNEVAILQNLHHPGIVNLECMFETPERVFVVMEKLHGDMLEMILSSEKSRLPERITKFMVTQILVALRNLHFKNIVHCDLKPENVLLASAEPFPQVKLCDFGFARIIGEKSFRRSVVGTPAYLAPEVLRSKGYNRSLDMWSVGVIIYVSLSGTFPFNEDEDINDQIQNAAFMYPPNPWREISGEAIDLINNLLQVKMRKRYSVDKSLSHPWLQDYQTWLDLREFETRIGERYITHESDDARWEIHAYTHNLVYPKHFIMAPNPDDMEEDP [PRKD3] | -0.119 | -0.25
4 | MEASRCRLSPSGDSVFHEEMMKMRQAKLDYQRLLLEKRQRKKRLEPFMVQPNPEARLRRAKPRASDEQTPLVNCHTPHSNVILHGIDGPAAVLKPDEVHAPSVSSSVVEEDAENTVDTASKPGLQERLQKHDISESVNFDEETDGISQSACLERPNSASSQNSTDTGTSGSATAAQPADNLLGDIDDLEDFVYSPAPQGVTVRCRIIRDKRGMDRGLFPTYYMYLEKEENQKIFLLAARKRKKSKTANYLISIDPVDLSREGESYVGKLRSNLMGTKFTVYDRGICPMKGRGLVGAAHTRQELAAISYETNVLGFKGPRKMSVIIPGMTLNHKQIPYQPQNNHDSLLSRWQNRTMENLVELHNKAPVWNSDTQSYVLNFRGRVTQASVKNFQIVHKNDPDYIVMQFGRVADDVFTLDYNYPLCAVQAFGIGLSSFDSKLACE [TULP3] | -0.00836 | 0.0464
5 | MYLK | 0.101 | -0.635
6 | KCT2 | -0.29 | 0.0557
7 | DGKZ | 0.323 | 0.0613
8 | MAELRQVPGGRETPQGELRPEVVEDEVPRSPVAEEPGGGGSSSSEAKLSPREEEELDPRIQEELEHLNQASEEINQVELQLDEARTTYRRILQESARKLNTQGSHLGSCIEKARPYYEARRLAKEAQQETQKAALRYERAVSMHNAAREMVFVAEQGVMADKNRLDPTWQEMLNHATCKVNEAEEERLRGEREHQRVTRLCQQAEARVQALQKTLRRAIGKSRPYFELKAQFSQILEEHKAKVTELEQQVAQAKTRYSVALRNLEQISEQIHARRRGGLPPHPLGPRRSSPVGAEAGPEDMEDGDSGIEGAEGAGLEEGSSLGPGPAPDTDTLSLLSLRTVASDLQKCDSVEHLRGLSDHVSLDGQELGTRSGGRRGSDGGARGGRHQRSVSL [SH3BP5L] | -0.0461 | 0.128
9 | MGQCVTKCKNPSSTLGSKNGDREPSNKSHSRRGAGHREEQVPPCGKPGGDILVNGTKKAEAATEACQLPTSSGDAGRESKSNAEESSLQRLEELFRRYKDEREDAILEEGMERFCNDLCVDPTEFRVLLLAWKFQAATMCKFTRKEFFDGCKAISADSIDGICARFPSLLTEAKQEDKFKDLYRFTFQFGLDSEEGQRSLHREIAIALWKLVFTQNNPPVLDQWLNFLTENPSGIKGISRDTWNMFLNFTQVIGPDLSNYSEDEAWPSLFDTFVEWEMERRKREGEGRGALSSGPEGLCPEEQT [DCUN1D3] | -0.131 | 0.0421
10 | DNLZ | 0.242 | -0.145
11 | MYRSGERLLGSHALPAEQRDFLPLETTNNNNNHHQPGAWARRAGSSASSPPSASSSPHPSAAVPAADPADSASGSSNKRKRDNKASGGRAAGGGRADGGGVVYSGTPWKRRNYNQGVVGLHEEISDFYEYMSPRPEEEKMRMEVVNRIESVIKELWPSADVQIFGSFKTGLYLPTSDIDLVVFGKWENLPLWTLEEALRKHKVADEDSVKVLDKATVPIIKLTDSFTEVKVDISFNVQNGVRAADLIKDFTKKYPVLPYLVLVLKQFLLQRDLNEVFTGGIGSYSLFLMAVSFLQLHPREDACIPNTNYGVLLIEFFELYGRHFNYLKTGIRIKDGGSYVAKDEVQKNMLDGYRPSMLYIEDPLQPGNDVGRSSYGAMQVKQAFDYAYVVLSHAVSPIAKYYPNNETESILGRIIRVTDEVATYRDWISKQWGLKNRPEPSCNGPVSSSSATQSSSSDVDSDATPCKTPKQLLCRPSTGNRVGSQDVSLESSQAVGKMQSTQTTNTSNSTNKSQHGSARLFRSSSKGFQGTTQTSHGSLMTNKQHQGKSNNQYYHGKKRKHKRDAPLSDLCR [PAPD5] | 0.189 | -0.654
12 | MANETQKVGAIHFPFPFTPYSIQEDFMAELYRVLEAGKIGIFESPTGTGKSLSLICGALSWLRDFEQKKREEEARLLETGTGPLHDEKDESLCLSSSCEGAAGTPRPAGEPAWVTQFVQKKEERDLVDRLKAEQARRKQREERLQQLQHRVQLKYAAKRLRQEEEERENLLRLSREMLETGPEAERLEQLESGEEELVLAEYESDEEKKVASRVDEDEDDLEEEHITKIYYCSRTHSQLAQFVHEVKKSPFGKDVRLVSLGSRQNLCVNEDVKSLGSVQLINDRCVDMQRSRHEKKKGAEEEKPKRRRQEKQAACPFYNHEQMGLLRDEALAEVKDMEQLLALGKEARACPYYGSRLAIPAAQLVVLPYQMLLHAATRQAAGIRLQDQVVIIDEAHNLIDTITGMHSVEVSGSQLCQAHSQLLQYVERYGKRLKAKNLMYLKQILYLLEKFVAVLGGNIKQNPNTQSLSQTGTELKTINDFLFQSQIDNINLFKVQRYCEKSMISRKLFGFTERYGAVFSSREQPKLAGFQQFLQSLQPRTTEALAAPADESQASTLRPASPLMHIQGFLAALTTANQDGRVILSRQGSLSQSTLKFLLLNPAVHFAQVVKECRAVVIAGGTMQPVSDFRQQLLACAGVEAERVVEFSCGHVIPPDNILPLVICSGISNQPLEFTFQKRELPQMMDEVGRILCNLCGVVPGGVVCFFPSYEYLRQVHAHWEKGGLLGRLAARKKIFQEPKSAHQVEQVLLAYSRCIQACGQERGQVTGALLLSVVGGKMSEGINFSDNLGRCVVMVGMPFPNIRSAELQEKMAYLDQTLSPRPGTPREGSGGEPVHEGRQPVHRQGHQAPEGFCQRSAPGPAICPAPCPGQAAGLDPSPCGGQSYLWPRHCCCAEVSPGEVGLFLMGNHTTAWRRALPLSCPLETVFVVGVVCGDPVTKVKPRRRVWSPECCQDPGTGVSSRRRKWGNPE [DDX11] | -0.0575 | -0.119

Reference: the supplement of paper PMC5998384
